Measurements as given in US20230340098A1.

Tests used:
[1] = target: human GARP/TGFβ1 complex (protein used in ELISA and Octet) (human) (UniProt Q14392); experiment: Octet
[2] = target: human GARP/latent TGFβ1 complex on cells (human) (UniProt Q14392); experiment: flow cytometry on human GARP/latent TGFβ1 transfected CHO-S cells, goat anti-human IgG(H+L) FITC
[3] = target: human GARP protein not in any GARP/TGFβ1 complex (protein used in ELISA and Octet) (human) (UniProt Q14392); experiment: Octet
Chain of human GARP protein not in any GARP/TGFβ1 complex (protein used in ELISA and Octet) (human) (Q14392 20-627 limits assumed, one chain of several): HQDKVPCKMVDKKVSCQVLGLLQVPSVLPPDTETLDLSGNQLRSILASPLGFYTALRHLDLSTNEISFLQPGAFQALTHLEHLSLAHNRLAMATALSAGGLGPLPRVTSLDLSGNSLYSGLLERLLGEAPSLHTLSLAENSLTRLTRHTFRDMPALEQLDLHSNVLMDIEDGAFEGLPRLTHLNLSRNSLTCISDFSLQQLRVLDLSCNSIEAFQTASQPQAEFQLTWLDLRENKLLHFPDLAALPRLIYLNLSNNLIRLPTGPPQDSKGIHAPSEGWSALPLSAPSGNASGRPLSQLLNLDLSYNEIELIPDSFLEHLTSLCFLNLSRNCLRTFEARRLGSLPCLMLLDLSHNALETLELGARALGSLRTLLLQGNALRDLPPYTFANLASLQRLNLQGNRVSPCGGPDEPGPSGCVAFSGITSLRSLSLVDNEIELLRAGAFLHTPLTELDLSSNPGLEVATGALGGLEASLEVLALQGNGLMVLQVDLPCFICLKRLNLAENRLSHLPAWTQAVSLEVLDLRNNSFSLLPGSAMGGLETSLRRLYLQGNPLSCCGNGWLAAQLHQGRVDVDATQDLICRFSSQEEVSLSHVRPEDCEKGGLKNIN

Row | Kd [1] [nM] | EC50 (read off the curve) [2] [µg/mL] | Kd [3] [nM] | Substance
1 | 0.428 | 0.3 | – | GARP ref. Ab1, an ABBV-151 analog (antibody)
2 | 4.12 | – | 2.02 | GARP ref. Ab2, a DS-1005a analog (antibody)
